Results on three molecules are retold here after paper PMC5524640, “Evasion of immunosurveillance by genomic alterations of PPARγ/RXRα in bladder cancer” (Nature Communications, 2017).

The term stoichiometry N denotes a count of units in the complex or per binding partner.

Changes are numbered by the printed parent chain. Names and notes keep the numbering of the source.

Series [1] deals with the molecule itself. Description: SEC; 16/60 Sephacryl S-300 in 25 mM Tris-HCl pH 8.0, 100 mM NaCl, 10% glycerol, 1 mM TCEP; no exogenous ligand; tetramer and monomer peaks. In general terms: Size exclusion chromatography separates by hydrodynamic size, large species first.
For a further series, the target named is T1, His-TEV-PPARγ (234-505) (human, UniProt P37231 234-505).
T1 construct: The methods name no species for the bacterial construct; No tag cleavage is described for this preparation; also called PPARg; source: E. coli, purified (Ni-NTA, size exclusion chromatography)
T1 sequence (looked up): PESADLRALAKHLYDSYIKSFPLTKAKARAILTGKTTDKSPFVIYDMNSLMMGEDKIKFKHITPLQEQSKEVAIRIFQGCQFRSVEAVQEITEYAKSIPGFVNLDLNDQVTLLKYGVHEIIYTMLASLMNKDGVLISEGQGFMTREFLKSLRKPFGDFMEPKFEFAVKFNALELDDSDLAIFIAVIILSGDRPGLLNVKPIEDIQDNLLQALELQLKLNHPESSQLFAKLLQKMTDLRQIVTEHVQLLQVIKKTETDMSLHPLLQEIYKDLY
Kind of series: SEC; analytical, 10/300 Superdex 200; equivalent molar volumes loaded; heterodimer formed by mixing the two proteins at a 1:1 molar ratio; no ligand. Conditions: both partners purified.

Series [2] addresses T2, His-TEV-RXRα-S427F (223-462) (Homo sapiens (Human), UniProt P19793).
T2 chain: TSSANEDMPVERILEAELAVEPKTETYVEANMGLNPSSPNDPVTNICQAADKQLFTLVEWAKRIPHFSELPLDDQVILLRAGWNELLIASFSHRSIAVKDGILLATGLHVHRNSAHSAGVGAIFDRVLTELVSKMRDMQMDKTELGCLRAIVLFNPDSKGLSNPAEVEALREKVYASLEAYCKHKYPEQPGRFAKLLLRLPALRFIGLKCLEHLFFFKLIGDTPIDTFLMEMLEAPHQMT
Kind of series: SPR (also analytical size exclusion chromatography); S427F mutant of RXRα; binding seen without added ligand.

The target in series [3] is T3, His-TEV-RXRα-WT (223-462) (Homo sapiens (Human), UniProt P19793).
T3 chain: T2 chain with F205S
Description: SPR; monomer fraction of RXRα WT used (apo tetramer is inactive). On the technique in general: SPR reads the build-up and loss of mass on a sensor chip optically.

B1: His-TEV-RXRα-WT (223-462) (domain or fragment, human, UniProt P19793 223-462, looked up)
chain: T2 chain with F205S
As for B1, the “stoichiometry N” value in series [1] was determined as 4.

B2: His-TEV-RXRα-S427F (223-462) (domain or fragment, human, UniProt P19793 223-462, looked up)
chain: T2 chain
notes: S427F is a recurrent mutation found in patients' tumours; No tag cleavage is described for this preparation; also called the mutant; source: E. coli, purified (Ni-NTA, size exclusion chromatography)
As for B2, the binding result with His-TEV-PPARγ (234-505) is recorded as “binds”.

B3: His-TEV-PPARγ (234-505) (protein)
chain: T1 sequence (looked up)
B3: the binding result in series [2] and in series [3] was “binds” throughout.
